Laboratory results published in article PMC3595365 (Molecular cell, 2013).

Key:
His6-NEDD8 = His6-NEDD8 (UniProt Q15843 1-76); experiment: BLI
His6-ubiquitin = His6-ubiquitin (UniProt P0CG48 1-76); experiment: BLI

Chain of His6-NEDD8 (Q15843 1-76): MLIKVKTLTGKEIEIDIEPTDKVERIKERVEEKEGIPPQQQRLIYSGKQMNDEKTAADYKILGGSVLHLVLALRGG

B1: GST-RNF168-MIU2 (439-462) (domain or fragment, UniProt Q8IYW5 439-462, looked up)
chain: RHKQEEQDRLLALQLQKEVDKEQM
In the case of B1, the Kd (His6-NEDD8) is reported as 14 ± 3 µM and the Kd (His6-ubiquitin) is reported as 17 ± 3 µM.
